Source: patent publication US20060269997A1 (Genentech, published 2006)
Where a chain is given by its changes, count along the chain named.

B1: LK-VRB-6s (ligand, human, UniProt P15692-4 27-135, looked up)
chain: APMAEGGGQNHHEVVKFMDVYQRSYCHPIETLVDIFQEYPDEIEYIFKPSCVPLMRCGGCCNSEATECVPTEESNITMQIMRIKPHQGQHIGEMSFLQHNKCECRPKKD
B2: LK-VRB-3s (ligand, human, UniProt P15692-4 27-135, looked up)
chain: B1 chain with F17I, M18E, Y21F, Q22K, Y25S, S63D, A65G, T66L
B3: LK-VRB-5s (ligand, human, UniProt P15692-4 27-135, looked up)
chain: B1 chain with A65G, T66R
B4: LK-VRB-4s (ligand, human, UniProt P15692-4 27-135, looked up)
chain: B1 chain with F17I, M18E, Y21F, Q22E, Y25I, S63D, A65G, T66L
B5: LK-VRB-2f (ligand, human, UniProt P15692-4 27-191, looked up)
chain: APMAEGGGQNHHEVVKFMDVYQRSYCHPIETLVDIFQEYPDEIEYIFKPSCVPLMRCGGCCNSEMRECVPTEESNITMQIMRIKPHQGQHIGEMSFLQHNKCECRPKKDRARQENPCGPCSERRKHLFVQDPQTCKCSCKNTDSRCKARQLELNERTCRCDKPRR
notes: also called KDR-selective VEGF variant; KDR-sel
B6: LK-VRB-7s* (ligand, human, UniProt P15692-4 27-135, looked up)
chain: B1 chain with M18E, A65M, T66R
B7: LK-VRB-8s* (ligand)
chain: B1 chain with Y21L, A65M, T66R
B8: LK-VRB-9s (ligand, human, UniProt P15692-4 27-135, looked up)
chain: B1 chain with Q22R, A65M, T66R
B9: His 86** (ligand)
chain: B1 chain with S63D, A65G, T66L, H86A
B10: Lys 16 (ligand)
chain: B1 chain with K16A, S63D, A65G, T66L
B11: Ile 83* (ligand)
chain: B1 chain with S63D, A65G, T66L, I83A
B12: Leu 66** (ligand)
chain: B1 chain with S63D, A65G, T66A
B13: Lys 101 (ligand)
chain: B1 chain with S63D, A65G, T66L, K101A
B14: Tyr 25** (ligand)
chain: B1 chain with Y25A, S63D, A65G, T66L
B15: Lys 48** (ligand)
chain: B1 chain with K48A, S63D, A65G, T66L
B16: Phe 17* (ligand)
chain: B1 chain with F17A, S63D, A65G, T66L
B17: Met 81** (ligand)
chain: B1 chain with S63D, A65G, T66L, M81A
B18: Phe 47** (ligand)
chain: B1 chain with F47A, S63D, A65G, T66L
B19: Ile 43* (ligand)
chain: B1 chain with I43A, S63D, A65G, T66L
B20: Ile 46* (ligand)
chain: B1 chain with I46A, S63D, A65G, T66L
B21: Ile 91 (ligand)
chain: B1 chain with S63D, A65G, T66L, I91A
B22: Met 18** (ligand)
chain: B1 chain with M18A, S63D, A65G, T66L
B23: Tyr 21** (ligand)
chain: B1 chain with Y21A, S63D, A65G, T66L
B24: Pro 106 (ligand)
chain: B1 chain with S63D, A65G, T66L, P106A

target: gD-KDR receptor on CHO cells (UniProt P35968 20-1356); test: cell-based or functional assay

| Binder | Phosphorylation-Inducing Activity (KIRA), midpoint concentration | Phosphorylation-Inducing Activity (KIRA), ratio to native VEGF (8-109) |
| --- | --- | --- |
| B1 | 1 nM | 0.5 fold |
| B2 | 2 nM | 1 fold |
| B3 | 1 nM | 0.5 fold |
| B4 | 1 nM | 0.5 fold |

target: KDR on human umbilical vein endothelial cells (HUVEC) (human, UniProt P35968 20-1356); test: cell-based or functional assay
Sequence (P35968 20-1356): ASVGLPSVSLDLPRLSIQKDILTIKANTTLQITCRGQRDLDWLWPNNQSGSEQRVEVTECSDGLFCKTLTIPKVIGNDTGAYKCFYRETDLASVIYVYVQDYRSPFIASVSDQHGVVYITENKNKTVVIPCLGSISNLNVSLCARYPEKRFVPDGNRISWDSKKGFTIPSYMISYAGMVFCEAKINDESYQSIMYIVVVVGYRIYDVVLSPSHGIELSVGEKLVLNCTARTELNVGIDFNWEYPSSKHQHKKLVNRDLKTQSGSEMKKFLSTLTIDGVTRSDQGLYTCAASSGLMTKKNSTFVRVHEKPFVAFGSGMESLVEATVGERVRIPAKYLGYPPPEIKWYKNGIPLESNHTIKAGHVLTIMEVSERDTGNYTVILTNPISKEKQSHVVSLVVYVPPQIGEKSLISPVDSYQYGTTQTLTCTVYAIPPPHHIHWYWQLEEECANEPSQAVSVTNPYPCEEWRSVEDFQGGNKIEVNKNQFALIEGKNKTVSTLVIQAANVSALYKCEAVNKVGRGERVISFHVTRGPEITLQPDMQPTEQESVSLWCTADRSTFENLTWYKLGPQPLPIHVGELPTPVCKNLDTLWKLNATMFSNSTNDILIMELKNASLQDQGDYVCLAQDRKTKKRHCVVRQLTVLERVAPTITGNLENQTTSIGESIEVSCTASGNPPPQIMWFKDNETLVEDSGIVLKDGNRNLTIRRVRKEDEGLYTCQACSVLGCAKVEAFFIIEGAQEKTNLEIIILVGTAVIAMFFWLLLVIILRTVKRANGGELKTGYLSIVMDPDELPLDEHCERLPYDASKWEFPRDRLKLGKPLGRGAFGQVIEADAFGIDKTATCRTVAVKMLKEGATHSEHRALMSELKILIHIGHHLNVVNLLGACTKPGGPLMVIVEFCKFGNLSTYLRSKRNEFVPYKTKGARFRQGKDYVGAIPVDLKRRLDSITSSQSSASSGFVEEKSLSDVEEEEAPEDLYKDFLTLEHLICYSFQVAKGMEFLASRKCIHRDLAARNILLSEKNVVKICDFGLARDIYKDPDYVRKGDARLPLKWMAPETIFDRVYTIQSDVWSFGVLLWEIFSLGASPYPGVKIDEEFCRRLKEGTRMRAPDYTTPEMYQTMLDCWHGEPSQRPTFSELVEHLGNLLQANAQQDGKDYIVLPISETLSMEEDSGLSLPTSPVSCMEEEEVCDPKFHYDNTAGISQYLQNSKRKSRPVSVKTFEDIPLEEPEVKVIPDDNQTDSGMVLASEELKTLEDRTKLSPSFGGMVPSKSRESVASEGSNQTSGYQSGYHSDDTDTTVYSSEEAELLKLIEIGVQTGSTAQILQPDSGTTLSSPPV

| Binder | Endothelial Cell Proliferation Activity (HUVEC, 3H-thymidine), concentration | Endothelial Cell Proliferation Activity (HUVEC), ratio to native VEGF (8-109) |
| --- | --- | --- |
| B5 | 0.05 nM |  |
| B6 | 0.5 nM | 1 fold |
| B7 | 0.5 nM | 1 fold |

target: T1, Flt-IgG (a chimeric Flt-human Fc molecule) (UniProt P17948 27-758, limits assumed); test: competition ELISA vs biotinylated native VEGF, Flt-IgG captured by anti-Fc
T1 construct: Only described as a chimeric Flt-human Fc molecule; not shown: human Fc
Experimental: (§1) Receptor binding assays were performed in 96-well immunoplates (Maxisorp, Nunc-Immunoplate, Nalge Nunc International, Rochester, N.Y.). Each well was coated with 100 μl of a solution containing 2 μg/ml of rabbit F(ab′)2 to human IgG Fc (Jackson ImmunoResearch, West Grove, Pa.) in 50 mM carbonate buffer at pH 9.6 and incubated at 4° C. overnight. The supernatant was then discarded, the wells were washed three times in washing buffer (0.05% Tween 20 in PBS), and the plate was blocked (150 μl per well) with block buffer (0.5% BSA, 0.01% thimerosal in PBS) at room temperature for one hour. The supernatant was discarded, and the wells were washed.
The wells were filled with 100 μl of a solution containing Flt-IgG (a chimeric Flt-human Fc molecule) at 50 ng/ml in assay buffer (0.5% BSA, 0.05% Tween 20 in PBS). The wells were incubated at room temperature for 1 hour and then washed three times in wash buffer (0.05% Tween 20 in PBS).
(§2) Aliquots of the mixture (100 μl) were added to the precoated microtiter wells and the plate was incubated for 2 hours at room temperature. […] The wells were then incubated with 3,3′, 5,5′-tetramethyl benzidine (0.2 g/liter, Kirkegaard & Perry Laboratories, Gaithersburg, Md.) for about 10 minutes at room temperature. Absorbance was read at 450 nm on a Vmax plate reader (Molecular Devices, Menlo Park, Calif.).

T1 sequence (P17948 27-758 limits assumed, change not shown): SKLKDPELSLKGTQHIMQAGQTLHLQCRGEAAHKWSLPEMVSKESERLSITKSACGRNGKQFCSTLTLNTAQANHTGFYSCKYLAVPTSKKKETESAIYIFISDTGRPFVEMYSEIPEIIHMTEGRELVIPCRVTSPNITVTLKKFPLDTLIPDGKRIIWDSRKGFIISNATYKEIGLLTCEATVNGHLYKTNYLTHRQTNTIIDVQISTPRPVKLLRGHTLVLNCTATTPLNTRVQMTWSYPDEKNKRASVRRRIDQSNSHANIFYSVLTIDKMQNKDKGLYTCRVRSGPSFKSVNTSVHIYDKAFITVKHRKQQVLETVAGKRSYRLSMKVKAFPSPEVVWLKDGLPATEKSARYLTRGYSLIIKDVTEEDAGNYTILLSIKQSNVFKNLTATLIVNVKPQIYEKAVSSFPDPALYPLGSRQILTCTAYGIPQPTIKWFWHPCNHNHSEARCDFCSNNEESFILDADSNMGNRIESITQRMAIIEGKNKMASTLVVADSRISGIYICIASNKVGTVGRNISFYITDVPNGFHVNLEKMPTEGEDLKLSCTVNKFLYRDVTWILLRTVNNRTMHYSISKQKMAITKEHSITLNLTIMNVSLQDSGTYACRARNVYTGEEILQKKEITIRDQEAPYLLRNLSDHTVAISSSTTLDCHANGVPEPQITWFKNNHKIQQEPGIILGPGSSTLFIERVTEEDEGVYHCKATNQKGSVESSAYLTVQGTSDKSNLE

| Binder | IC50 | Relative Binding Affinity (ratio to native VEGF (8-109)) |
| --- | --- | --- |
| B5 | 19 nM |  |
| B1 | 4 nM | 10 fold |
| B2 | 170 nM | 400 fold |
| B8 |  | 300 fold |
| B3 | 233 nM | 550 fold |
| B4 | 100 nM | 200 fold |

target: T2, KDR (1-3) monomer (UniProt P35968 20-327, limits assumed, biotin-labeled in the ELISA of Example 8); test: competition ELISA vs biotinylated VEGF (8-109), soluble KDR (1-3) captured by MAKD5
T2 construct: domain: domains 1 to 3; Genentech reagent; also called domains 1 to 3 of KDR
Experimental: as §1, with “containing 8” for “containing 2”, “of a monoclonal antibody” for “of rabbit F(ab′)2”, “to KDR known as MAKD5 (Genentech, South San Francisco, Calif.)” for “to human IgG Fc (Jackson ImmunoResearch, West Grove, Pa.)”, “was” for “was then”
as §2, with “of this” for “of the”, “for 1 hour” for “for 2 hours”, “(0.2 gram/liter;” for “(0.2 g/liter,”
Titration curves were fit with a four-parameter nonlinear regression curve-fitting program (KaleidaGraph, Synergy Software, Reading, Pa.).

T2 sequence (P35968 20-327 limits assumed): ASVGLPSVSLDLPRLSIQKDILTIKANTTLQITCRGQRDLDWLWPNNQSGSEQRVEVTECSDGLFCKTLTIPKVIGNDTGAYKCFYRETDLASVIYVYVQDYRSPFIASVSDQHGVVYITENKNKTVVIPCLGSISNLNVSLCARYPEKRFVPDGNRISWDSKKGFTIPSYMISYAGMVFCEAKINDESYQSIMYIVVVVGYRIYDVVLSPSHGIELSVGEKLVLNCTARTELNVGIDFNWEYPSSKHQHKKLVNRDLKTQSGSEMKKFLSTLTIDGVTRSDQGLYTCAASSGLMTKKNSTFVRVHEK

| Binder | IC50 | Relative Binding Affinity (ratio to native VEGF (8-109)) |
| --- | --- | --- |
| B1 | 0.5 nM | 0.5 fold |
| B6 | 1 nM | 1 fold |
| B2 | 1 nM | 1 fold |
| B7 | 0.5 nM | 0.5 fold |
| B8 | 0.5 nM | 0.5 fold |
| B3 | 1 nM | 1 fold |
| B4 | 1 nM | 1 fold |

target: T2, KDR (1-3) monomer; test: competition ELISA: plate coated with VEGF (8-109), 100 pM biotin-labeled KDR(1-3), serial dilutions of the competing VEGF (Example 8)
Experimental: (§3) After 1 hour, the plates were washed, and the bound protein stained with streptavidin horseradish peroxidase conjugate (Pharmacia) and assayed. Affinities were estimated as IC₅₀ values: the concentration of KDR(1-3) or Flt(1-3) that blocked 50% of protein binding.

| Binder | fold reduction in binding (IC50 variant / IC50 VEGF(1-109)) |
| --- | --- |
| B9 | 2 fold |
| B10 | 1 fold |
| B11 | 89 fold |
| B12 | 1 fold |
| B13 | 1 fold |
| B14 | 6 fold |
| B15 | 1 fold |
| B16 | 45 fold |
| B17 | 9 fold |
| B18 | 5 fold |
| B19 | 21 fold |
| B20 | 96 fold |
| B21 | 1 fold |
| B22 | 5 fold |
| B23 | 19 fold |
| B24 | 1 fold |

target: T3, Flt-1 (1-3) monomer (UniProt P17948 27-331, limits assumed, biotin-labeled in the ELISA of Example 8); test: competition ELISA: plate coated with VEGF (8-109), 100 pM biotin-labeled Flt1(1-3), serial dilutions of the competing VEGF (Example 8)
T3 construct: domain: domains 1 to 3; Genentech reagent; also called Flt(1-3); domains 1 to 3 of Flt-1
Experimental: as §3

T3 sequence (P17948 27-331 limits assumed): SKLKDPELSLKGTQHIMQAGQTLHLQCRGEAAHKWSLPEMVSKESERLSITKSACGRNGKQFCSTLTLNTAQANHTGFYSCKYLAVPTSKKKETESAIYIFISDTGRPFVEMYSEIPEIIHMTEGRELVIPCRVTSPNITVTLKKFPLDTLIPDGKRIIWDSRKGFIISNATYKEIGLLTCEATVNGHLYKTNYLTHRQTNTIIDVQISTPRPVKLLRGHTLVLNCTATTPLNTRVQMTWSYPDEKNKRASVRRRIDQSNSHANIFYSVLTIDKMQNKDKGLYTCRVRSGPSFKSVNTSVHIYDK

| Binder | fold reduction in binding (IC50 variant / IC50 VEGF(1-109)) |
| --- | --- |
| B9 | 1 fold |
| B10 | 1 fold |
| B11 | 7 fold |
| B12 | 10 fold |
| B13 | 1 fold |
| B14 | 7 fold |
| B15 | 1 fold |
| B16 | 34 fold |
| B17 | 5 fold |
| B18 | 3 fold |
| B19 | 3 fold |
| B20 | 4 fold |
| B21 | 1 fold |
| B22 | 9 fold |
| B23 | 29 fold |
| B24 | 1 fold |
